The results in this text go back to US20150218281A1 (Ablynx, published 2015).

Experiment [1] addresses T1, recombinant human OX40L (extracellular domain, R&D Systems) (human, UniProt P23510 51-183).
T1 sequence: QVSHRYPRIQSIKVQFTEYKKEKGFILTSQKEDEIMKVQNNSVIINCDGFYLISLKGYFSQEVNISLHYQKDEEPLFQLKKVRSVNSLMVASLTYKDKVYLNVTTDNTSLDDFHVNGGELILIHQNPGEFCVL
Put plainly: cell-based or functional assay.

Experiment [2] addresses T2, biotinylated hOX40L (R&D Systems, biotinylated in house) (human, UniProt P23510 51-183, biotinylated with Sulfo-NHS-LC-Biotin, sites not stated).
T2 construct: same bought protein as m10, biotinylated; also called biotinylated OX40L
T2 sequence: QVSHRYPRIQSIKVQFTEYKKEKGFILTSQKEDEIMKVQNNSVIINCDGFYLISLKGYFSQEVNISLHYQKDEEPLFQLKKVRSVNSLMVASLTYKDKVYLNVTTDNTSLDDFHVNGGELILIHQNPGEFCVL
Put plainly: hOX40L/hOX40 AlphaScreen, assay 1, native. As to the method: Next, streptavidin donor beads were added and incubated for an additional 1 hour. Fluorescence was measured by reading plates on the EnVision Multilabel Plate Reader using an excitation wavelength of 680 nm and an emission wavelength of 520 nm. […]

Experiment [3] concerns the target T2, biotinylated hOX40L (R&D Systems, …). The experiment is described as follows: hOX40L/hOX40 AlphaScreen, assay 3, native. As to the method: (§1) Next, streptavidin donor beads were added and incubated for an additional 1 hour. Fluorescence was measured by reading plates on the EnVision Multilabel Plate Reader using an excitation wavelength of 680 nm and an emission wavelength of 520 nm.
(§2) In the TSA assay, Nanobodies were diluted to a concentration of 0.2 mg/ml and melting temperature (Tm) was determined at different pH by stepwise increase in temperature in presence of Sypro Orange, a dye that binds to […] residues that become exposed upon unfolding of the protein, using the Lightcycler (Roche) for detection. […] In SEC analysis, the Nanobodies were analyzed on a Phenomenex matrix to allow detection of multimers, aggregates or ‘stickyness’.
On the technique in general: In Alpha technology, singlet oxygen from a donor bead excites a nearby acceptor bead.

Experiment [4] shares this target. The experiment is described as follows: hOX40L/hOX40 AlphaScreen, assay 3, heated at Tm+10 C. As to the method: as §1, §2
For experiment [5] the target is unchanged. Put plainly: hOX40L/hOX40 AlphaScreen, assay 2, native. As to the method: as §1, §2
Experiment [6] shares this target. The experiment is described as follows: hOX40L/hOX40 AlphaScreen, assay 2, heated at Tm+10 C. As to the method: as §1, §2

B1: OX40L030 (VHH, not shown: small tags and cut ends)
VHH: DVQLVESGGGLVQAGGSLRLSCAASRSIGRLDRMGWYRHRTGEPRELVATITGGSSINYGDFVKGRFTISIDNAKNTVYLQMNNLKPEDTAVYYCNFNKYVTSRDTWGQGTQVTVSS
As usually defined, the IC50 is the point on the concentration scale where inhibition reaches its midpoint. In the case of B1, the “IC50, T cell assay with rec. hOX40L” value in experiment [1] was determined as 11 nM. For the same molecule, the IC50 in experiment [2] is 0.076 nM; in experiment [3] it was 0.143 nM; in experiment [4], 0.143 nM.

B2: OX40L040 (VHH, not shown: small tags and cut ends)
VHH: DVQLVESGGGLVQPGGSLRLSCAASRSIGRLDRMGWYRHRTGEPRELVATITGGSSINYGDFVKGRFTISRDNSKNTVYLQMNSLRPEDTAVYYCNFNKYVTSRDTWGQGTLVTVSS
For B2, the “IC50, T cell assay with rec. hOX40L” value in experiment [1] came to 9 nM. Also, the IC50 in experiment [2] was determined as 0.046 nM; in experiment [5], 0.092 nM; in experiment [3], 0.102 nM; in experiment [6] it was 0.084 nM; in experiment [4] it was 0.082 nM.

B3: OX40L055 (VHH, not shown: small tags and cut ends)
VHH: DVQLVESGGGLVQPGGSLRLSCAASRSIGRLDRMGWYRHRTGEPRELVATITGGSSINYGDFVKGRFTISRDNSKNTVYLQMNNLRPEDTAVYYCNFNKYVTSRDTWGQGTLVTVSS
For B3, the IC50 stood at 0.091 nM in experiment [3] and 0.106 nM in experiment [4].

B4: OX40L053 (VHH, not shown: small tags and cut ends)
VHH: DVQLVESGGGLVQPGGSLRLSCAASRSIGRLDRMGWYRHRTGEPRELVATITGGSSINYGDFVKGRFTISIDNSKNTVYLQMNSLRPEDTAVYYCNFNKYVTSRDTWGQGTLVTVSS
On to B4, for which the half-inhibitory concentration (IC50) came out at 0.118 nM in experiment [3] and 0.126 nM in experiment [4].

B5: OX40L054 (VHH, not shown: small tags and cut ends)
VHH: DVQLVESGGGLVQPGGSLRLSCAASRSIGRLDRMGWYRHRTGEPRELVATITGGSSINYGDFVKGRFTISRDNAKNTVYLQMNSLRPEDTAVYYCNFNKYVTSRDTWGQGTLVTVSS
On to B5, for which the IC50 in experiment [3] was determined as 0.079 nM; in experiment [4], 0.094 nM.
